Laboratory results from IntAct's records for PubMed 19706414.

Target: casp8_human CASP8 (UniProt Q14790)
Sequence (Q14790 whole entry): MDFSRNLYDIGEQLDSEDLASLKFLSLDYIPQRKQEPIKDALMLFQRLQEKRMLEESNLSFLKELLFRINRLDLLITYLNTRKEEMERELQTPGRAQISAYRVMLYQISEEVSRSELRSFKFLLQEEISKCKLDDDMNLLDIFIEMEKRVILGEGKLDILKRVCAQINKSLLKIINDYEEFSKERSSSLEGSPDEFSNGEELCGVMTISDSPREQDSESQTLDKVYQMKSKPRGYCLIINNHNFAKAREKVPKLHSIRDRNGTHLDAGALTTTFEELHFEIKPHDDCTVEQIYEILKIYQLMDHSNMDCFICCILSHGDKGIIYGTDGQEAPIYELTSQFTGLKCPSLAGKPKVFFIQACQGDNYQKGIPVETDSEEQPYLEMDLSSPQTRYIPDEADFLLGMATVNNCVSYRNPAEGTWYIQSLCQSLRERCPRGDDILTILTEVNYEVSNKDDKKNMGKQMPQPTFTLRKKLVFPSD

Chain of Osteopontin (Homo sapiens), P10451-1 D135A;D157A (P10451 whole entry D135A/D157A): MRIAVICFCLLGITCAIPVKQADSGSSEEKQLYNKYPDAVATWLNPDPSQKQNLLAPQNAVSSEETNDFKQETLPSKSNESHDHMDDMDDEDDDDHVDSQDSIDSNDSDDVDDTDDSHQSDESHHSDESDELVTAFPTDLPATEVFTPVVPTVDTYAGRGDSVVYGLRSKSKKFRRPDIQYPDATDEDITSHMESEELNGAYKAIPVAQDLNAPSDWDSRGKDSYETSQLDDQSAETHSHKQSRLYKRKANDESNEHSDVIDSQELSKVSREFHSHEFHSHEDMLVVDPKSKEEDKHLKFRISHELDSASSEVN

## Osteopontin (Homo sapiens), P10451-1 D135A;D157A
  effect of a mutation on the interaction: disrupting interaction
